Reference: IntAct's records for PubMed 16254079

B1: Proliferation-associated protein 2G4 (Homo sapiens), Q9UQ80 (parent)
chain: MSGEDEQQEQTIAEDLVVTKYKMGGDIANRVLRSLVEASSSGVSVLSLCEKGDAMIMEETGKIFKKEKEMKKGIAFPTSISVNNCVCHFSPLKSDQDYILKEGDLVKIDLGVHVDGFIANVAHTFVVDVAQGTQVTGRKADVIKAAHLCAEAALRLVKPGNQNTQVTEAWNKVAHSFNCTPIEGMLSHQLKQHVIDGEKTIIQNPTDQQKKDHEKAEFEVHEVYAVDVLVSSGEGKAKDAGQRTTIYKRDPSKQYGLKMKTSRAFFSEVERRFDAMPFTLRAFEDEKKARMGVVECAKHELLQPFNVLYEKEGEFVAQFKFTVLLMPNGPMRITSGPFEPDLYKSEMEVQDAELKALLQSSASRKTQKKKKKKASKTAENATSGETLEENEAGD
partner: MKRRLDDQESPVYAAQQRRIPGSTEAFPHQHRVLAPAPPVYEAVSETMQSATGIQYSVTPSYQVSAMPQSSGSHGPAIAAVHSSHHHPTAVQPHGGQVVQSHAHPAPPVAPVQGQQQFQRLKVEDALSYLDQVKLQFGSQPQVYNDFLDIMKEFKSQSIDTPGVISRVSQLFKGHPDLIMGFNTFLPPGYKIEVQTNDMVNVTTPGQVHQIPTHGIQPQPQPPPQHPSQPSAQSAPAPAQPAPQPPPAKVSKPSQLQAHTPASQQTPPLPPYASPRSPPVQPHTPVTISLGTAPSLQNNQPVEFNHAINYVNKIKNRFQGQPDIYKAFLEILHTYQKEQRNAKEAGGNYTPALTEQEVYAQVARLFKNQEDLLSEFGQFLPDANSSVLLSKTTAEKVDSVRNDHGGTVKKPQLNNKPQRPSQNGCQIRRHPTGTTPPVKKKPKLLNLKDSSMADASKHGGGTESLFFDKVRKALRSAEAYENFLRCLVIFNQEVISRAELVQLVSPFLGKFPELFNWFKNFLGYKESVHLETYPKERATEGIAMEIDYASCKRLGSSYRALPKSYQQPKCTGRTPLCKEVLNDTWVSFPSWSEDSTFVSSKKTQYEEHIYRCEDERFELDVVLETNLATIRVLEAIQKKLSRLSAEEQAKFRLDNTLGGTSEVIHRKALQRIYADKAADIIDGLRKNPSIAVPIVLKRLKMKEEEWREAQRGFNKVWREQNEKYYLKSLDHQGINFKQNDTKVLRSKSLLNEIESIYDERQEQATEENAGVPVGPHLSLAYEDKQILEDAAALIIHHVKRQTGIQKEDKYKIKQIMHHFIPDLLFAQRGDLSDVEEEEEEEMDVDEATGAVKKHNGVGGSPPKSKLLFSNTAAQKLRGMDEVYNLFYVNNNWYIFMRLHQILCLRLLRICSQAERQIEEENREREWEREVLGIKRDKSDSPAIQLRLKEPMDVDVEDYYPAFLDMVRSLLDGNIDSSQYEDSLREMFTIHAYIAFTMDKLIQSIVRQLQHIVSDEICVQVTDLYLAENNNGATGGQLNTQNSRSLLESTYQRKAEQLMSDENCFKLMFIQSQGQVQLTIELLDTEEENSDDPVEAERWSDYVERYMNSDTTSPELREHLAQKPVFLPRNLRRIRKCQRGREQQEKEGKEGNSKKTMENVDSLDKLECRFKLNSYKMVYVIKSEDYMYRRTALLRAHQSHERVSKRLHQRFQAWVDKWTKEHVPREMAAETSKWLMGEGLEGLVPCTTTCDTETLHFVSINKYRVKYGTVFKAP

Variants of: B1
Details: with sin3a_human SIN3A
With MSGEDEQQEQTIAEDLVVTKYKMGGDIANRVLRSLVEASSSGVSVLSLCEKGDAMIMEETGKIFKKEKEMKKGIAFPTSISVNNCVCHFSPLKSDQDYILKEGDLVKIDLGVHVDGFIANVAHTFVVDVAQGTQVTGRKADVIKAAHLCAEAALRLVKPGNQNTQVTEAWNKVAHSFNCTPIEGMLSHQLKQHVIDGEKTIIQNPTDQQKKDHEKAEFEVHEVYAVDVLVSSGEGKAKDAGQRTTIYKRDPSKQYGLKMKTSRAFFSEVERRFDAMPFTLRAFEDEKKARMGVVECAKHELLQPFNVLYEKEGEFVAQFKFTVLLMPNGPMRITSGPFEPDLYKSEMEVQDAELKAAAQSSASRKTQKKKKKKASKTAENATSGETLEENEAGD [L357A;L358A] the “effect of a mutation on the interaction” value was “disrupting interaction”.
